Test results as given in patent publication US20240100162A1.

B1: TCR3 (TCR)
TCR alpha: AQKVTQAQTEISVVEKEDVTLDCVYETRDTTYYLFWYKQPPSGELVFLIRRNSFDEQNEISGRYSWNFQKSTSSFNFTITASQVVDSAVYFCALSVLRMDSSYKLIFGSGTRLLVRPDIQNPDPAVYQLRDSKSSDKSVCLFTDFDSQTNVSQSKDSDVYITDKTVLDMRSMDFKSNSAVAWSNKSDFACANAFNNSIIPEDTFFPSPESSCDVKLVEKSFETDTNLNFQNLSVIGFRILLLKVAGFNLLMTLRLWSS
TCR beta: NAGVTQTPKFRVLKTGQSMTLLCAQDMNHEYMYWYRQDPGMGLRLIHYSVGEGTTAKGEVPDGYNVSRLKKQNFLLGLESAAPSQTSVYFCASSLQGAGQPQHFGDGTRLSILEDLNKVFPPEVAVFEPSEAEISHTQKATLVCLATGFFPDHVELSWWVNGKEVHSGVSTDPQPLKEQPALNDSRYCLSSRLRVSATFWQNPRNHFRCQVQFYGLSENDEWTQDRAKPVTQIVSAEAWGRADCGFTSVSYQQGVLSATILYEILLGKATLYAVLVSALVLMAMVKRKDF
B2: TCR1 (TCR)
TCR alpha: KQEVTQIPAALSVPEGENLVLNCSFTDSAIYNLQWFRQDPGKGLTSLLLIQSSQREQTSGRLNASLDKSSGRSTLYIAASQPGDSATYLCAAMKTSYDKVIFGPGTSLSVIPNIQNPDPAVYQLRDSKSSDKSVCLFTDFDSQTNVSQSKDSDVYITDKTVLDMRSMDFKSNSAVAWSNKSDFACANAFNNSIIPEDTFFPSPESSCDVKLVEKSFETDTNLNFQNLSVIGFRILLLKVAGFNLLMTLRLWSS
TCR beta: GEEVAQTPKHLVRGEGQKAKLYCAPIKGHSYVFWYQQVLKNEFKFLISFQNENVFDETGMPKERFSAKCLPNSPCSLEIQATKLEDSAVYFCASSQGQGGYGYTFGSGTRLTVVEDLNKVFPPEVAVFEPSEAEISHTQKATLVCLATGFFPDHVELSWWVNGKEVHSGVSTDPQPLKEQPALNDSRYCLSSRLRVSATFWQNPRNHFRCQVQFYGLSENDEWTQDRAKPVTQIVSAEAWGRADCGFTSVSYQQGVLSATILYEILLGKATLYAVLVSALVLMAMVKRKDF
B3: TCR2 (TCR)
TCR alpha: QKEVEQNSGPLSVPEGAIASLNCTYSDRGSQSFFWYRQYSGKSPELIMSIYSNGDKEDGRFTAQLNKASQYVSLLIRDSQPSDSATYLCAVNIPFSNSGGYQKVTFGTGTKLQVIPNIQNPDPAVYQLRDSKSSDKSVCLFTDFDSQTNVSQSKDSDVYITDKTVLDMRSMDFKSNSAVAWSNKSDFACANAFNNSIIPEDTFFPSPESSCDVKLVEKSFETDTNLNFQNLSVIGFRILLLKVAGFNLLMTLRLWSS
TCR beta: NAGVTQTPKFRVLKTGQSMTLLCAQDMNHEYMYWYRQDPGMGLRLIHYSVGEGTTAKGEVPDGYNVSRLKKQNFLLGLESAAPSQTSVYFCASRHPGQYNQPQHFGDGTRLSILEDLNKVFPPEVAVFEPSEAEISHTQKATLVCLATGFFPDHVELSWWVNGKEVHSGVSTDPQPLKEQPALNDSRYCLSSRLRVSATFWQNPRNHFRCQVQFYGLSENDEWTQDRAKPVTQIVSAEAWGRADCGFTSVSYQQGVLSATILYEILLGKATLYAVLVSALVLMAMVKRKDF

molecular target: highly frequent MHC Class I alleles in major US ethnic groups, including 38 HLA-A, 40 HLA-B, and 24 HLA-C alleles, on a panel of 34 BLCLs; assay: cell-based or functional assay

Row | cytokine (IFNg, TNFa, IL-12p70) and granzyme B production in co-culture with BLCLs, fold over IL12-RFP control T cells | Binder
1 | < 4 fold | B1
2 | < 4 fold | B2
3 | < 4 fold | B3
